The results in this text go back to article PMC7048182.

The target of this test is V5-tagged LvpIgR expressed in HEK293T cells (Litopenaeus vannamei).

“GST-tagged VP24 of WSSV (natural protein)” displayed a WSSV infection rate of HEK293T cells transfected with LvpIgR, FITC-labelled WSSV preincubated with rPEN2; control preincubated with rTrx: 49.08% of 33.9%.
